Reference: US20200010571A1 (Janssen / Centocor, published 2020)
Values joined by “and” are separate entries in the source; they are usually repeats but may differ in a detail not shown here. Identical values can stand only once.

Key:
cynomolgus TNF-α [1] = molecular target: T1, cynomolgus TNF-α (cynomolgus, UniProt P79337 77-233); assay: SPR (Biacore 3000), mAb captured by anti-IgG Fc, antigen in solution, 1:1 Langmuir
T1 construct: also called Cyno TNF-α

[2] = molecular target: T2, human IL-17A (recombinant) (human, UniProt Q16552 24-155); assay: competition ELISA: biotinylated rhIL-17A binding to plate-coated rhIL-17RA-Fc; Experiment 3; 95% CI 0.2433-0.2757
T2 construct: Biotinylated in the IL-17RA ELISA; also called rhIL-17A

[3] = molecular target: T2, human IL-17A (recombinant); assay: competition ELISA: biotinylated rhIL-17A binding to plate-coated rhIL-17RA-Fc
rat TNF-α = molecular target: T3, rat TNF-α (rat, UniProt P16599 80-235); assay: SPR (Biacore 3000), mAb captured by anti-IgG Fc, antigen in solution
T3 sequence: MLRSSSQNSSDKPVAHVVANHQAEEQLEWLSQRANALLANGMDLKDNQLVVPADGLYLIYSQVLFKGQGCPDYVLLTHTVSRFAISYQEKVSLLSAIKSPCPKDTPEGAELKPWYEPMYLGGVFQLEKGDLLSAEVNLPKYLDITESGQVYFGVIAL

mouse TNF-α = molecular target: T4, mouse TNF-α (mouse, UniProt P06804 80-235); assay: as above
T4 sequence: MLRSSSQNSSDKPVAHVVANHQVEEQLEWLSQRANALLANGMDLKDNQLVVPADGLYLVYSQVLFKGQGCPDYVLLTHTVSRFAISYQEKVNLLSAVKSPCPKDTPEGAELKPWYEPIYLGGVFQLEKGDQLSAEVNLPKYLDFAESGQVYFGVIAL

cynomolgus IL-17A [4] = molecular target: T5, cynomolgus IL-17A (cynomolgus, UniProt Q16552 24-155 (human entry), limits assumed); assay: SPR (Biacore 3000), mAb captured by anti-IgG Fc, antigen in solution, 1:1 Langmuir;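 also: run in PBS containing BSA and P20 at 25 °C, antigen injected at four dilutions, 3 min association, dissociation followed 20 min to 2 h, two independent experiments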
T5 construct: also called Cyno IL-17A
T5 chain: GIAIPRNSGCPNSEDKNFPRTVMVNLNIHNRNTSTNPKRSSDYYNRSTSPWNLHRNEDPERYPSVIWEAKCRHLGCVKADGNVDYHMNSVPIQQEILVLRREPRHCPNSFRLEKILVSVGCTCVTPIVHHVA

rat IL-17A = molecular target: T6, rat IL-17A (rat, UniProt Q61453 18-150); assay: as above
T6 chain: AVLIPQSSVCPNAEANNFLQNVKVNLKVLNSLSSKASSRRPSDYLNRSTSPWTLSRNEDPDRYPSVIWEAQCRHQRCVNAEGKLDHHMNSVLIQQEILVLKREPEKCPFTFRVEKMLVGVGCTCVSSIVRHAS

mouse IL-17A = molecular target: T7, mouse IL-17A (mouse, UniProt Q62386 26-158); assay: as above
T7 sequence: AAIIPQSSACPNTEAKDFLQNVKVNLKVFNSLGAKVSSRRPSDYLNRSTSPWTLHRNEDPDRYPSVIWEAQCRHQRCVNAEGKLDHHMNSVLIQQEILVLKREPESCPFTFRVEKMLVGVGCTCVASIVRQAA

[5] = molecular target: T2, human IL-17A (recombinant); assay: cell-based or functional assay
cynomolgus IL-17A [6] = molecular target: T5, cynomolgus IL-17A; assay: cell-based or functional assay
[7] = molecular target: T2, human IL-17A (recombinant); assay: SPR (Biacore 3000), mAb captured by anti-IgG Fc, antigen in solution, 25 C, 1:1 Langmuir
[8] = molecular target: T8, rhTNF-α (recombinant human, soluble) (human, UniProt P01375 77-233); assay: cell-based or functional assay
recombinant human IL-17F = molecular target: T9, recombinant human IL-17F (human, UniProt Q96PD4 31-163); assay: binding to rhIL-17A in the absence or presence of IL-17F
T9 sequence: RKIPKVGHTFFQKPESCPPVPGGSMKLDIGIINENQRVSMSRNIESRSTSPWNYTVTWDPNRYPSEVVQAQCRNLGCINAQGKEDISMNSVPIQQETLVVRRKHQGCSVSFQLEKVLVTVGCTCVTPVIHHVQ

[9] = molecular target: T2, human IL-17A (recombinant); assay: competition ELISA: biotinylated rhIL-17A binding to plate-coated rhIL-17RA-Fc; Experiment 1; 95% CI 0.09343-0.1160
[10] = molecular target: T8, rhTNF-α (recombinant human, soluble); assay: cell-based or functional assay; remark: listed apart in the source
[11] = molecular target: T8, rhTNF-α (recombinant human, soluble); assay: SPR (Biacore 3000), mAb captured by anti-IgG Fc, antigen in solution, 25 C, 1:1 Langmuir
[12] = molecular target: T2, human IL-17A (recombinant); assay: competition ELISA: biotinylated rhIL-17A binding to plate-coated rhIL-17RA-Fc; Experiment 2; 95% CI 0.1474-0.1920
[13] = molecular target: T10, recombinant human IL-17A/F heterodimer (human, UniProt Q16552 24-155; Q96PD4 31-163); assay: cell-based or functional assay
cynomolgus TNF-α [14] = molecular target: T1, cynomolgus TNF-α; assay: cell-based or functional assay
[15] = molecular target: T2, human IL-17A (recombinant); assay: cell-based or functional assay; remark: listed apart in the source
[16] = molecular target: T8, rhTNF-α (recombinant human, soluble); assay: cell-based or functional assay; remark: listed apart in the source
[17] = molecular target: native (endogenous) human TNF-α (human, UniProt P01375 77-233); assay: cell-based or functional assay
cynomolgus IL-17A [18] = molecular target: T5, cynomolgus IL-17A; assay: cell-based or functional assay
[19] = molecular target: protease-resistant form of human transmembrane TNF-α (lacks amino acids Val1 to Pro12) overexpressed by K2 … (human, UniProt P01375 1-233); assay: cell-based or functional assay
[20] = molecular target: T10, recombinant human IL-17A/F heterodimer; assay: cell-based or functional assay; remark: listed apart in the source

B1: mAb 9762 (bispecific anti-TNF-α/IL-17A antibody, IgG1) (bispecific antibody)
heavy 1: not shown
light 1: not shown
heavy 2: not shown
light 2: QSVLTQPPSVSVAPGQTARISCSGDNLGDKYANWYQQKPGQAPVLVIYDDIDRPSGIPERFSGSNSGNTATLTISGTQAEDEADYYCGSYDFFLGMIVFGGGTKLTVLGQPKAAPSVTLFPPSSEELQANKATLVCLISDFYPGAVTVAWKADSSPVKAGVETTTPSKQSNNKYAASSYLSLTPEQWKSHRSYSCQVTHEGSTVEKTVAPTECS
With B1 the Kd (cynomolgus TNF-α [1]) was 0.399 nM and 0.186 nM, the koff (cynomolgus TNF-α [1]) was 0.000103 s⁻¹ and 0.000127 s⁻¹ and the kon (cynomolgus TNF-α [1]) was 259000 M⁻¹ s⁻¹ and 681000 M⁻¹ s⁻¹. The IC50 [2] was 0.259 µg/mL, the “fold IC50 against the parental anti-IL-17A antibodies mAb 4782 and mAb 7206” value [3] was roughly 3 fold and the binding result (rat TNF-α) was “no binding (tested: up to 100 nM)”. The binding result (mouse TNF-α) was “no binding (tested: up to 100 nM)”, the Kd (cynomolgus IL-17A [4]) was 0.0236 nM and 0.0318 nM and the koff (cynomolgus IL-17A [4]) was 3.66e-05 s⁻¹ and 4.57e-05 s⁻¹. For the same binder, the kon (cynomolgus IL-17A [4]) was 1.55e+06 M⁻¹ s⁻¹ and 1.43e+06 M⁻¹ s⁻¹, the Kd (rat IL-17A) was 15.4 nM and the koff (rat IL-17A) was 0.00316 s⁻¹. It also gave a kon (rat IL-17A) of 205000 M⁻¹ s⁻¹, a Kd (mouse IL-17A) of 0.997 nM and a koff (mouse IL-17A) of 0.00103 s⁻¹. The kon (mouse IL-17A) was 1.03e+06 M⁻¹ s⁻¹, the “IC50 (µg/mL); Inhibition of native IL-17A mediated IL-6 production by NHDF; Experiment 1” value [5] was 0.0501 µg/mL and the “IC50 (µg/mL); Inhibition of native IL-17A mediated IL-6 production by NHDF; Experiment 2” value [5] was 0.0445 µg/mL. For the same binder, the “IC50 (µg/mL); Inhibition of native IL-17A mediated IL-6 production by NHDF; Experiment 3” value [5] was 0.049 µg/mL, the “IC50 (µg/mL); Inhibition of cyno IL-17A mediated IL-6 production by NHDF; Experiment 2” value (cynomolgus IL-17A [6]) was 0.0784 µg/mL and the “IC50 (µg/mL); Inhibition of cyno IL-17A mediated IL-6 production by NHDF; Experiment 3” value (cynomolgus IL-17A [6]) was 0.0583 µg/mL. For the same binder, the Kd [7] was 0.022 nM and 0.0453 nM, the koff [7] was 4.15e-05 s⁻¹ and 3.99e-05 s⁻¹ and the kon [7] was 1.88e+06 M⁻¹ s⁻¹ and 882000 M⁻¹ s⁻¹. For the same binder, the “fold of IC50 against the parental anti-TNF-α antibodies mAb 9809 and mAb 6696; rhTNF-α-induced cytotoxicity in WEHI-164 cells” value [8] was roughly 3 fold, the binding result (recombinant human IL-17F) was “no binding” and the IC50 [9] was 0.104 µg/mL. For the same binder, the “IC50 (nM); WEHI-164 cells cytotoxicity mediated by soluble rhTNF-α; Experiment 1” value [10] was 1.28 nM, the “IC50 (nM); WEHI-164 cells cytotoxicity mediated by soluble rhTNF-α; Experiment 2” value [10] was 2.07 nM and the “IC50 (nM); WEHI-164 cells cytotoxicity mediated by soluble rhTNF-α; Experiment 3” value [10] was 0.631 nM. The Kd [11] was 0.0188 nM and 0.0211 nM, the koff [11] was 3.81e-05 s⁻¹ and 3.63e-05 s⁻¹ and the kon [11] was 2.02e+06 M⁻¹ s⁻¹ and 1.72e+06 M⁻¹ s⁻¹. The IC50 [12] was 0.168 µg/mL, the “IC50 (µg/mL); Inhibition of IL-17A/F mediated IL-6 production by NHDF; Experiment 1” value [13] was 0.135 µg/mL and the “IC50 (µg/mL); Inhibition of IL-17A/F mediated IL-6 production by NHDF; Experiment 2” value [13] was 0.174 µg/mL. For the same binder, the “IC50 (µg/mL); Inhibition of IL-17A/F mediated IL-6 production by NHDF; Experiment 3” value [13] was 0.131 µg/mL, the “IC50 (nM); Inhibition of cyno TNF-α mediated cytotoxicity in WEHI-164 cells; Experiment 1” value (cynomolgus TNF-α [14]) was 4.42 nM and the “IC50 (nM); Inhibition of cyno TNF-α mediated cytotoxicity in WEHI-164 cells; Experiment 2” value (cynomolgus TNF-α [14]) was 20.6 nM. For the same binder, the “IC50 (nM); Inhibition of cyno TNF-α mediated cytotoxicity in WEHI-164 cells; Experiment 3” value (cynomolgus TNF-α [14]) was 9.29 nM, the “IC50 (µg/mL); Inhibition of native IL-17A mediated GROα production by NHDF; Experiment 1” value [15] was 0.081 µg/mL and the “IC50 (µg/mL); Inhibition of native IL-17A mediated GROα production by NHDF; Experiment 2” value [15] was 0.0648 µg/mL. For the same binder, the “IC50 (µg/mL); Inhibition of native IL-17A mediated GROα production by NHDF; Experiment 3” value [15] was 0.0508 µg/mL, the “IC50 (nM); KYM-1D4 cells, cytotoxicity mediated by soluble rhTNF-α; Experiment 1” value [16] was 0.152 nM and the “IC50 (nM); KYM-1D4 cells, cytotoxicity mediated by soluble rhTNF-α; Experiment 2” value [16] was 0.343 nM. For the same binder, the “IC50 (nM); KYM-1D4 cells, cytotoxicity mediated by soluble rhTNF-α; Experiment 3” value [16] was 0.169 nM, the “IC50 (nM); KYM-1D4 cells, cytotoxicity mediated by endogenous soluble TNF-α; Experiment 1” value [17] was 0.346 nM and the “IC50 (nM); KYM-1D4 cells, cytotoxicity mediated by endogenous soluble TNF-α; Experiment 2” value [17] was 0.327 nM. For the same binder, the “IC50 (nM); KYM-1D4 cells, cytotoxicity mediated by endogenous soluble TNF-α; Experiment 3” value [17] was 0.197 nM, the “IC50 (µg/mL); Inhibition of cyno IL-17A mediated GROα production by NHDF; Experiment 1” value (cynomolgus IL-17A [18]) was 0.299 µg/mL and the “IC50 (µg/mL); Inhibition of cyno IL-17A mediated GROα production by NHDF; Experiment 2” value (cynomolgus IL-17A [18]) was 0.329 µg/mL. The “IC50 (µg/mL); Inhibition of cyno IL-17A mediated GROα production by NHDF; Experiment 3” value (cynomolgus IL-17A [18]) was 0.137 µg/mL, the “IC50 (nM); KYM-1D4 cells, cytotoxicity mediated by membrane bound human TNF-α; Experiment 1” value [19] was 0.82 nM and the “IC50 (nM); KYM-1D4 cells, cytotoxicity mediated by membrane bound human TNF-α; Experiment 2” value [19] was 0.966 nM. The “IC50 (nM); KYM-1D4 cells, cytotoxicity mediated by membrane bound human TNF-α; Experiment 3” value [19] was 0.425 nM, the “IC50 (µg/mL); Inhibition of IL-17A/F mediated GROα production by NHDF; Experiment 1” value [20] was 0.549 µg/mL and the “IC50 (µg/mL); Inhibition of IL-17A/F mediated GROα production by NHDF; Experiment 2” value [20] was 0.436 µg/mL. The “IC50 (µg/mL); Inhibition of IL-17A/F mediated GROα production by NHDF; Experiment 3” value [20] was 0.392 µg/mL.
